Two sequences from the supplement of paper PMC6379048 can be followed below.

Holding throughout (assay): EC50 of free RNA motif oligo competing protein binding to immobilised probe
Data set [1] has as its target T1, CPSF3 (UniProt Q9UKF6).
T1 sequence: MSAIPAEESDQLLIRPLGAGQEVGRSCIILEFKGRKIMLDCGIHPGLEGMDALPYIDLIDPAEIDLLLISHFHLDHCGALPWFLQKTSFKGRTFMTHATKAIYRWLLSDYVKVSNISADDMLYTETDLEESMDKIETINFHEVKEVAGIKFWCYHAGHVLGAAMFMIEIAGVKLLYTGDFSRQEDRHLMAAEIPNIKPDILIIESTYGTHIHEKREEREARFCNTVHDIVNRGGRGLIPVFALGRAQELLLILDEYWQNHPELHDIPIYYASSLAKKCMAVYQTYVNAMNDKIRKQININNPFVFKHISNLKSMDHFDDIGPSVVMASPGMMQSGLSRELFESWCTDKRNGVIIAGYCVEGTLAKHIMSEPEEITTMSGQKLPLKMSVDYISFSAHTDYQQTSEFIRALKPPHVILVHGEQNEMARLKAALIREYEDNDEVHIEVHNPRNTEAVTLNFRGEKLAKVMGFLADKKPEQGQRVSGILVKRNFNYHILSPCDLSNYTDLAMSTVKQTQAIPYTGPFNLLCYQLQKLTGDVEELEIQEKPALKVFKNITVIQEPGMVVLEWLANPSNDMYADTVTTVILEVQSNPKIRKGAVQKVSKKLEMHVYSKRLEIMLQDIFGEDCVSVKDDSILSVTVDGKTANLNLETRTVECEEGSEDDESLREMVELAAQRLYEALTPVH
In outline:
(§1)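 Free RNA oligos (0 nM to 30 μM) competed for 1 h at 4°C in HEK293-FT lysate (2.5 mg protein/well) before a 30 min, 4°C pulldown with the same oligos on NHS-Sepharose beads. Bound proteins were quantified by label-free LC-MS/MS and normalised to the control. Kd was found by multiplying EC50, from a four-parameter log-logistic fit, by a protein-dependent depletion factor.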

In data set [2] the target is T2, LSM2 (UniProt Q9Y333).
T2 sequence: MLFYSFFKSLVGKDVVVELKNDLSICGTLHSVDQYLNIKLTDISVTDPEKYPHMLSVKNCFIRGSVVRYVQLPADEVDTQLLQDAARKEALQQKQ
In outline: as §1

Data set [3] deals with T3, CPSF1 (UniProt Q10570).
T3 sequence: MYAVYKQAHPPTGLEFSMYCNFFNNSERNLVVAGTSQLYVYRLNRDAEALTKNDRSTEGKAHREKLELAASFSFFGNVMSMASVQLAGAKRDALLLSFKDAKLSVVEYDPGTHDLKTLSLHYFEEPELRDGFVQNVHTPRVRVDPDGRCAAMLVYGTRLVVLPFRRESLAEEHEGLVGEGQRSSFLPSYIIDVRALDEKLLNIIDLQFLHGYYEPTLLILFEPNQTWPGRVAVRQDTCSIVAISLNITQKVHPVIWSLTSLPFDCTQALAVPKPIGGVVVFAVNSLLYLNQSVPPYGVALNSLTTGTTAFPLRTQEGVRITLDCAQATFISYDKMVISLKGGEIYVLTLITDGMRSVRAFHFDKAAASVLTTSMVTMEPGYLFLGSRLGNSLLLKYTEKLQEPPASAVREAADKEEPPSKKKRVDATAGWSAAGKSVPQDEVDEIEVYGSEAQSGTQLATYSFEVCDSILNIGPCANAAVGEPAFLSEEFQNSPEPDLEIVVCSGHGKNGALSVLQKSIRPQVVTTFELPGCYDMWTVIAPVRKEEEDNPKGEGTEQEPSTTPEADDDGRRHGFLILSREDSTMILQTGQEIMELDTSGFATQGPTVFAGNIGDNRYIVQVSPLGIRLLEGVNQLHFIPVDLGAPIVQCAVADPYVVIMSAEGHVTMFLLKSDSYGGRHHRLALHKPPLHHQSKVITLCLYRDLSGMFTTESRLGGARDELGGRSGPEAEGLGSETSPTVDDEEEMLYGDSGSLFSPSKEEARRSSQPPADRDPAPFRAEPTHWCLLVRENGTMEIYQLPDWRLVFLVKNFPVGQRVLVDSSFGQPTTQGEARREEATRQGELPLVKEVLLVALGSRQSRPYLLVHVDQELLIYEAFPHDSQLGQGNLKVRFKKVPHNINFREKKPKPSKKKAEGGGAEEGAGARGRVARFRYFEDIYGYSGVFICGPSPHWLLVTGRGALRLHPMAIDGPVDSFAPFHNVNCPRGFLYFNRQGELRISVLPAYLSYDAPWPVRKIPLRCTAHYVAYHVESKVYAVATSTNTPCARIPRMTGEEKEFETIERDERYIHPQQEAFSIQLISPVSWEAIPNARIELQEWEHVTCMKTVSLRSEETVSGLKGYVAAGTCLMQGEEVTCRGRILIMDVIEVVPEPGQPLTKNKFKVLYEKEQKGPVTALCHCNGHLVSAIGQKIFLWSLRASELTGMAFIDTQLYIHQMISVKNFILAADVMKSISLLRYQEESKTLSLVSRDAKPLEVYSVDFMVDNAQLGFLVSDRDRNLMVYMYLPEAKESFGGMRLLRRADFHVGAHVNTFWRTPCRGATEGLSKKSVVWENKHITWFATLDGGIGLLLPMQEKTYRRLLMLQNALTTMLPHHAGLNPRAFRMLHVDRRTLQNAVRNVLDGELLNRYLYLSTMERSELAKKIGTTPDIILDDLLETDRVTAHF
In outline: as §1

Data set [4] has as its target T4, HNRNPDL (UniProt O14979).
T4 sequence: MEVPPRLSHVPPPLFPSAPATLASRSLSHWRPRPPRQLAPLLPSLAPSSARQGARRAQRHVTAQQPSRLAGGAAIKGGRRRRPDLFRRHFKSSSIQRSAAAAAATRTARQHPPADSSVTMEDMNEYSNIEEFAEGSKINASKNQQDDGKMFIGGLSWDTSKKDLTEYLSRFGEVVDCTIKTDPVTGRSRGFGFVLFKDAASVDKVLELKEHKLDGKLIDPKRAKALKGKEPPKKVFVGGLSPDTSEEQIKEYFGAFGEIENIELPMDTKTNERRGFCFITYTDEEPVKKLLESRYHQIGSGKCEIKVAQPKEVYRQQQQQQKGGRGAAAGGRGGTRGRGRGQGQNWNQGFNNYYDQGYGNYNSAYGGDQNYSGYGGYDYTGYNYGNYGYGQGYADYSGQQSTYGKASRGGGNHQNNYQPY
In outline: as §1

AAUAAA: the concentration giving a half-maximal response (EC50) in data set [1] was found to be 57.4 nM; in data set [2], 314 nM; in data set [3] it was 64.4 nM; in data set [4], 2090 nM.

With UAUUUAU, the EC50 in data set [1] amounted to 598 nM; in data set [2], 781 nM; in data set [3], 1710 nM; in data set [4], 3480 nM.
